Measured values: US12043671B2, “Antibodies targeting an amphiregulin-derived cell surface neo-epitope” (Gundersen Lutheran Medical Foundation, Inc., priority 2021, dated 2024)

Legend:
[1] = molecular target: T1, FL AREG (peptide representing uncleaved AREG) (Homo sapiens, UniProt P15514); test: Immunoblot of TRF-conjugated AREG peptides, intact cleavage site; assay type: binding; conditions: 1 μg/mL antibody, 200 ng TRF-conjugated peptide
T1 construct: a peptide spanning this region (SMKTHSMIDSSLSKIAC); host or cells: synthetic peptide conjugated to transferrin
Description: (§1) Monomethyl auristatin E (MMAE) conjugated 1A3 antibody (1A3-VC-PAB-MMAE) was prepared using a kit (CM11409) from CellMosaic Inc. (Woburn, MA, USA) following the manufacturer's instructions. Maleimide-activated valine-citrulline p-aminobenzylcarbamate (VCPAB) MMAE was coupled directly to the antibody after reduction through alkylation.^13 The specificity of 1A3 and 1A3-VC-PAB-MMAE to peptides representing human cleaved-AREG was confirmed by immunoblotting. Briefly, transferrin (TRF) conjugated peptides representing cleaved and uncleaved AREG (200 ng) were electrophoresed on SDS-PAGE gels, transferred to PVDF membrane and probed with 1 μg/mL of 1A3 and 1A3-VC-PAB-MMAE. Horseradish peroxidase-conjugated goat anti-rabbit IgG was used. Antibody binding was detected with enhanced chemiluminescence (ECL; Amersham, Arlington Heights, IL, USA). Furthermore, the characterization and purity of 1A3-VC-PAB-MMAE were analyzed using hydrophobic interaction chromatography (HIC) and size-exclusion chromatography (Cell Mosaic).

[2] = molecular target: T2, cleaved AREG (Homo sapiens, UniProt P15514); test: Immunohistochemistry on breast tumor tissue micro-array; conditions: for proportion of tumors exhibiting medium/high intensity staining: 10 μg/mL
T2 construct: tissue US Biomax Inc; host or cells: breast disease spectrum tissue micro-array (formalin-fixed, paraffin-embedded)
T2 sequence (P15514 188-252): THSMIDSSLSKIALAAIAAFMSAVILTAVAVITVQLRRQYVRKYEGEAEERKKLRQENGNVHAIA
Description: A breast disease spectrum tissue micro-array was purchased from US Biomax Inc. (Derwood, MD, USA). The slides were deparaffinized in xylene and rehydrated by serial incubations in graded ethanol and then in water in a Histo-Tek® SL Slide Stainer (Sakura Finetek USA, Inc., Torrance, CA, USA). Antigen retrieval was performed in a steamer by boiling slides in a container of citrate buffer (pH 6.0) for 20 min, which was then removed for 15 min of cooling on the benchtop. Slides were washed in 1×Wash buffer (Dako Agilent, Santa Clara, CA, USA) and endogenous peroxidase was quenched by incubating with Dako Dual Endogenous Enzyme Block (S2003) for 10 min. Slides were washed in 1× Wash buffer, blocked (5% rabbit/10% goat serum in PBS), and immunostained with goat anti-AREG antibody (15 μg/mL; AF262, R&D Systems) or rabbit anti-cleaved AREG 1A3 antibody (10 μg/mL) overnight at 4° C. Slides were washed four times in 1× Wash buffer, followed by the incubation for 45 min at room temperature in 1:100 dilution of rabbit anti-goat immunoglobulins/HRP (Dako, P0160 or ready-to-use goat anti-rabbit HRP labeled polymer (Dako, K4003). The slides were washed twice in 1× Wash buffer and the color was developed with 3,3-diaminobenzidine tetrahydrochloride substrate chromogen system (K3468, DAKO, Santa Clara, CA, USA). Sections were washed with water and counterstained with hematoxylin, rinsed with water, dehydrated by serial ethanol washes to 100%, cleared and mounted in Permount (Thermo Fisher Scientific). The staining intensity was assessed semi-quantitatively using a four-point scale (negligible=0, low=1, medium=2, high=3) by two investigators working independently on blinded samples. Discordant scores were resolved by joint review.

[3] = molecular target: T3, cleaved Amphiregulin (Homo sapiens, UniProt P15514); test: Immunohistochemistry on multiple organ carcinoma tissue microarrays
T3 construct: tissue BioCoreUSA; host or cells: multiple organ carcinoma tissue microarrays (ten tumour types)
T3 sequence (P15514 188-252): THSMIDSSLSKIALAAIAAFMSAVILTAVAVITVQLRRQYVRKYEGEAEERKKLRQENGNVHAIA
Description: Two multiple organ carcinoma tissue microarrays were purchased from BioCoreUSA (Philadelphia, PA, USA). The slides were deparaffinized in xylene and rehydrated by serial incubations in graded ethanol and then in water in a Histo-Tek® SL Slide Stainer (Sakura Finetek USA, Inc., Torrance, CA, USA). Antigen retrieval was performed in a steamer by boiling slides in a container of citrate buffer (pH 6.0) for 20 min which was then removed for 15 minutes of cooling on the benchtop. Slides were washed in 1× Wash buffer (Dako Agilent, Santa Clara, CA, USA) and endogenous peroxidase was quenched by incubating with Dako Dual Endogenous Enzyme Block for 10 minutes. Slides were washed in 1× Wash buffer, blocked (5% rabbit/10% goat serum in PBS), and immunostained with goat anti-AREG antibody (15 μg/mL; AF262, R&D Systems) or rabbit anti-cleaved AREG 1A3 antibody (10 μg/mL) overnight at 4° C. Slides were washed four times in 1× Wash buffer, followed by incubation for 45 minutes at room temperature in 1:100 dilution of rabbit anti-goat immunoglobulins/HRP or ready-to-use goat antirabbit HRP labelled polymer (Dako). […] The staining intensity was assessed semi-quantitatively using a four-point scale (Negative=0, Low=1, Medium=2, High=3) by two investigators working independently on blinded samples. […]

[4] = molecular target: T4, Trunc AREG (fragment that remains cell-bound after cleavage by ADAM17) (Homo sapiens, UniProt P15514); test: Immunoblot of TRF-conjugated AREG peptides, cleaved mimic; assay type: binding; conditions: 1 μg/mL antibody, 200 ng TRF-conjugated peptide
T4 construct: host or cells: synthetic peptide conjugated to transferrin
Description: as §1

reaction with peptide representing uncleaved AREG by immunoblot [1]: did not react
cases with medium/high immunoreactivity ([2]; 138 breast cancer specimens): 70%
proportion of tumors exhibiting medium/high intensity staining ([2]; ER-negative tumors (n=50)): 70%
proportion of tumors exhibiting medium/high intensity staining ([2]; ER-positive tumors (n=88)): 69.3%
neoplastic cells negative for immunostaining ([3]; 370 evaluable cores, ten tumor types): No neoplastic cells were negative
tumors stained in the highest score for cleaved Amphiregulin ([3]; breast, prostate, liver and lung tumors): At least 50%
recognition of truncated AREG peptide by immunoblot [4]: specifically recognized
B1: 1A3: Rabbit monoclonal IgG specific to cleaved AREG; VH SEQ ID NO: 3, VL SEQ ID NO: 4 (antibody, V domains shown)
VH: QSVKESEGRLVTPGTPLRLTCTVAGYSLSRYHMCWVRQAPGKGLEWIGMIGGSGRTDYASWAKGRFTISKTSTTVDLKITSPTTEDTATYFCSTVYTDSDGDFWGPGTLVTVSS
VL: AELDMTQTPSSKSVPVGGTVTINCQASESVYSNDRLAWFQQKPGQPPKLLIYYASTLASGVPSRFKGSGSGTQFTLTISDLECADAATYYCQSCYDMSSYGVAFGGGTELEIL
modifications: 1A3 antibody, Heavy chain; 1A3 antibody, Light chain
